Assays:
Assay in all cases: cell-based or functional assay
[1] = biological target: ACM247-GFP hybrid protein (from plasmid pCm-ACM247-GFP) (Bordetella pertussis) (UniProt J7QLC0)
[2] = biological target: ACM335-GFP hybrid protein (from plasmid pCm-ACM335-GFP) (Bordetella pertussis)
[3] = biological target: AC-GFP hybrid protein (wild-type AC fused at its C-terminus to GFP, from plasmid pCm-AC-GFP) (Bordetella pertussis) (UniProt J7QLC0)
[4] = biological target: ACM335 (from plasmid pCm-ACM335, no fused moiety) (Bordetella pertussis) (UniProt J7QLC0)
[5] = biological target: AC (wild-type, from plasmid pCm-AC, no fused moiety) (Bordetella pertussis) (UniProt J7QLC0)
[6] = biological target: ACM335-FKBP hybrid protein (from plasmid pCm-ACM335-FKBP) (Bordetella pertussis) (UniProt P62942)

Substance	cAMP; CaM from pTr-CaM (nmol/mg dry weigth) [1]	β gal; CaM from pTr-CaM [1] [Rel. Units]	β gal; CaM from pTr-CaM [2] [Rel. Units]	cAMP; CaM from pTr-CaM (nmol/mg dry weigth) [3]	β gal; CaM from pTr-CaM [3] [Rel. Units]	β-galactosidase (relative units) [4]	β-galactosidase (relative units) [5]	β-galactosidase (relative units) [2]	β-galactosidase (relative units) [6]	β-galactosidase (relative units) [3]
CaM (from plasmid pTr-CaM, not fused to a moiety of interest) (from UniProt P0DP23 2-149)	< 0.1	1	80	> 250	106					
CaMVU8 (VU-8 calmodulin, from plasmid pCaMVU8) (from UniProt P0DP23 2-149)						7	6	6	6	5

Reference: US20170204402A1
